Results as given in article PMC6058493.

Key:
[1] = target: prostate-specific membrane antigen (PSMA) (UniProt Q04609); experiment: competition (flow cytometry, confocal microscopy); conditions: 2'-fluoro pyrimidines; 3'-spacer-NH2 as purchased; cells incubated 30 min at room temperature, washed 3x with PBS; buffer, salt and pH of incubation not stated; scale: % cells bound by aptamer nanobubbles with excess free aptamer
[2] = target: prostate-specific membrane antigen (PSMA) (UniProt Q04609); experiment: flow cytometry and confocal microscopy on LNCaP cells; conditions: 2'-fluoro pyrimidines; 3'-spacer-NH2; cells incubated 30 min at room temperature, washed 3x with PBS; buffer, salt and pH of incubation not stated

Sequence of UniProt Q04609 (Q04609 whole entry): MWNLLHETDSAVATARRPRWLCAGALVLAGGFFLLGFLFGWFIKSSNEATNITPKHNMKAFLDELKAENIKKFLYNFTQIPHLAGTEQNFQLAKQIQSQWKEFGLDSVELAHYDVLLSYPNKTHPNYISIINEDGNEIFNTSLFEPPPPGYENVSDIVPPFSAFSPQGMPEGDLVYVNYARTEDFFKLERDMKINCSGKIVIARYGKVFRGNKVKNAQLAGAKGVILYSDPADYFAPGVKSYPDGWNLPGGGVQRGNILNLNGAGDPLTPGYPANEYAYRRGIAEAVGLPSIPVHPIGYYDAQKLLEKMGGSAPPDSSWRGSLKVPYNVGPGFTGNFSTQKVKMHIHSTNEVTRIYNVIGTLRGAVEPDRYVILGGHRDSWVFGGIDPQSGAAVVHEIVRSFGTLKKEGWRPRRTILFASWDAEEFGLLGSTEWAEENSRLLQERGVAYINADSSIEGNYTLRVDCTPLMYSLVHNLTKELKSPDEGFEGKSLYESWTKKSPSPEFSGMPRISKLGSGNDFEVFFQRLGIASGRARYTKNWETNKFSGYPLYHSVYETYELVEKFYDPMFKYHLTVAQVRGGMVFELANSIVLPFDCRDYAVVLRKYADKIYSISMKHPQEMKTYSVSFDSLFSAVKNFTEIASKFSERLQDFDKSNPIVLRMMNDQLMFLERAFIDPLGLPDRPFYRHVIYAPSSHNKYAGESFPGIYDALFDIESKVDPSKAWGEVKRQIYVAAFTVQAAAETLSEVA

“GGGAGGACGAUGCGGAUCAGCCAUGUUUACGUCACUCCU [A10-3.2 aptamer (free competitor)]” showed a binding signal [1] of 4.07.

With “GGGAGGACGAUGCGGAUCAGCCAUGUUUACGUCACUCCU [A10-3.2 aptamer on siFoxM1-Apt-CNBs]” the binding signal (% cells bound) [2] was 82.4.
